Data: article PMC4188072, “Structure of a short-chain dehydrogenase/reductase (SDR) within a genomic island from a clinical strain of Acinetobacter baumannii” (Acta Crystallographica. Section F, Structural Biology …, 2014)

Biological target: the molecule itself
Experiment: SEC; Superdex G200 10/300 column, 50 mM HEPES buffer pH 7.5, 300 mM NaCl, 5% (v/v) glycerol; native mass 120 kDa against a 30 kDa band on SDS-PAGE

B1: SDR-WM99c short-chain dehydrogenase/reductase from Acinetobacter baumannii WM99c (enzyme, A. baumannii (strain WM99c))
chain: MNIFDVKDKYILITGASSGLGHHIAELFAKEGANIVICARRLERLKELESHIKNEYGVQVYTFALDVNDRSAVKDMLSSLEAEGVTIDVLINNAGVSDTKRFLDYNDEDWDKIVDTNLKAPWQCAQEVVQHMIKAERKGSIINITSILSQSTNLGVSPYCASKAGLRHLTEVMAVELARFGINVNAIAPGYMITEINEEYLTSEVGQQLLKKIPTRKFVEFDDLNGPLLLLASQAGQGITGIEIKVDGGHSAAPI
modifications: selenomethionine (cells grown in selenomethionine medium; Se sites located in the crystal)
notes: SDR-WM99c, hypothetical protein encoded in genomic island GI_12 of A. baumannii strain WM99c; total chain length 255 residues; also called SDR-WM99c dehydrogenase; source: E. coli BL21 (DE3) pLysS, grown in selenomethionine medium, purified (Ni-NTA); not shown: His6, N-terminal, kept
- stoichiometry N: 4
